Test results from patent US20090053138.

Experiments:
[1] = system: T1, VEGF (Homo sapiens ?), P15692-4; test: FP filter; settings: nitrocellulose dot blot
T1 sequence: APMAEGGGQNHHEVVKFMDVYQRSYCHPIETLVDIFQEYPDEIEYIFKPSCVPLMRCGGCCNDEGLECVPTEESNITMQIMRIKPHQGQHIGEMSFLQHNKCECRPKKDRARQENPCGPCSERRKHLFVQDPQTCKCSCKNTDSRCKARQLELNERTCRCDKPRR

PDGF-AB (Homo sapiens) = PDGF-AB (Homo sapiens) (UniProt P04085+P01127); test: competition; settings: DNA with s1 fU6 fC8 mG9; s2 mG5 mG7 fU10 fC11 mA12; s3 fC5 fC6 fU7 mG8 (f=2'-F, m=2'-OMe); HEG spacers between segments; 3'-inverted dT; dot blot; p348 prints uM, legend prints pM
[2] = target: PDGF-BB (Rattus norvegicus) (UniProt Q05028); test: competition; settings: DNA with s1 fU6 fC8 mG9; s2 mG5 mG7 fU10 fC11 mA12; s3 fC5 fC6 fU7 mG8 (f=2'-F, m=2'-OMe); HEG spacers between segments; 3'-inverted dT; equal affinity to …
[3] = system: PDGF-AA (Homo sapiens), P04085-2; test: competition; settings: PEG-conjugated ARC513 (PEG size per image, not given); 2'-OMe as ARC513; PEG spacers; figure legend states no binding to PDGF-AA

Sequence of PDGF-AB (Homo sapiens) (P01127 82-190, chain 2 of 2, other chains not shown): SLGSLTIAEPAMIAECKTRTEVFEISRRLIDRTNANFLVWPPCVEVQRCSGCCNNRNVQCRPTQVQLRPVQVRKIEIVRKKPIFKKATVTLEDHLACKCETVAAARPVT
Sequence of PDGF-BB (Rattus norvegicus) (Q05028 74-182): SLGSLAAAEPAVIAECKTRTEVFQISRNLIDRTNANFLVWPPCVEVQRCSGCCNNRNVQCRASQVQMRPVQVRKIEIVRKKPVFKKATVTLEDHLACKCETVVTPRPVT

In the case of AUGCAGUUUGAGAAGUCGCGCAU [ARC245], the Kd ([1]; all 2'-OMe) is reported as 2 nM.

“CAGGCTACGAUGCAGUUUGAGAAGUCGCGCAUCGTAGAGCATCAGAAATGATCCTG [TK.131.012.A]” showed a Kd ([1]; ARC126 part deoxy, ARC245 part 2'-OMe, dGdAdAdA linker) of 10 nM.

For “CAGGCTACGUGCAGUUUGAGAAGUCGCGCACGTAGAGCATCAGAAATGATCCTG [TK.131.012.B]”, the Kd ([1]; ARC126 part deoxy, ARC245 part 2'-OMe (first mA-mU pair removed), dGdAdAdA linker) was 5 nM.

Work on CAGGCUACGCGTAGAGCAUCATGATCCUG [ARC126] yielded a Kd (PDGF-AB (Homo sapiens)) of 0.0001 µM and a Kd [2] of 0.1 nM.

Sequence “CCCAGGCTACGCGTAGAGCAUCATGATCCTGGG [ARC594 (AX102)]” has a Kd [3] of 2.6 nM.
